Patent US20160000936A1

Biological target: murine IL-17 (mouse) (UniProt Q62386)
Experiment: assay not described; table titled 'Source And Binding Information'

Chain of murine IL-17 (mouse) (Q62386 26-158 limits assumed): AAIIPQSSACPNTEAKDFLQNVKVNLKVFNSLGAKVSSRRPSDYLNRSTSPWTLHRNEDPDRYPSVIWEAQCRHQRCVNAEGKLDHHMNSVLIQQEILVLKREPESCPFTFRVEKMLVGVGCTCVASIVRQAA

Q: For anti-murine IL-17 antibody MAB421, which IC50 is on record?
A: 0.7 nM
